{"source": "patent US20210355194A1", "about": "(TWIST BIOSCIENCE, published 2021)", "data": [{"target": "CV S-protein construct 6 trimer TP31001F (SARS-CoV-2, UniProt P0DTC2 14-1208)", "assay": "SPR", "units": {"Kd": "nM"}, "values": [{"binder": "variant 5-1 (Fc fusion, VHH-Fc) VHH: EVQLVESGGGLVQPGGSLRLSCAASGGTFSSIGMGWFRQAPGKEREFVAAISWDGGATAYADSVKGRFTISADNSKNTAYLQMNSLKPEDTAVYYCAKEDVGKPFDWGQGTLVTVSS", "Kd": 0.4}, {"binder": "variant 5-23 (Fc fusion) VHH: EVQLVESGGGLVQPGGSLRLSCAASGSIFSIDVMGWFRQAPGKEREFVAAISWSGESTLYADSVKGRFTISADNSKNTAYLQMNSLKPEDTAVYYCAAFDGYSGSDWGQGTLVTVSS", "Kd": 4.2}, {"binder": "variant 5-3 (Fc fusion) VHH: EVQLVESGGGLVQPGGSLRLSCAASGSIFSIDVMGWFRQAPGKEREFVAGISWSGDSTLYADSVKGRFTISADNSKNTAYLQMNSLKPEDTAVYYCAAFDGYTGSDWGQGTLVTVSS", "Kd": 5.6}, {"binder": "variant 5-66 (Fc fusion) VHH: EVQLVESGGGLVQPGGSLRLSCAASGNTFTINVMGWFRQAPGKEREFVAAINWNGGTTLYADSVKGRFTISADNSKNTAYLQMNSLKPEDTAVYYCAAFDGYSGIDWGQGTLVTVSS", "Kd": 98.9}, {"binder": "variant 5-13 (Fc fusion) VHH: EVQLVESGGGLVQPGGSLRLSCAASGFTFDYYTMGWFRQAPGKEREFVAAIRSSGGLFYADSVKGRFTISADNSKNTAYLQMNSLKPEDTAVYYCAAYLDGYSGSWGQGTLVTVSS", "Kd": 3.8}, {"binder": "variant 5-15 (Fc fusion) VHH: EVQLVESGGGLVQPGGSLRLSCAASGFTFDGAAMGWFRQAPGKEREFVATIRWTNSTDYADSVKGRFTISADNSKNTAYLQMNSLKPEDTAVYYCARGRYGIVERWGQGTLVTVSS", "Kd": 2.3}, {"binder": "variant 5-16 (Fc fusion) VHH: EVQLVESGGGLVQPGGSLRLSCAASGRTHSIYPMGWFRQAPGKERELVAAIHSGGATVYADSVKGRFTISADNSKNTAYLQMNSLKPEDTAVYYCAARRWIPPGPIWGQGTLVTVSS", "Kd": 1.9}, {"binder": "variant 5-17 (Fc fusion) VHH: EVQLVESGGGLVQPGGSLRLSCAASGPTFSIYAMGWFRQAPGKEREFVAGIRWSDVYTQYADSVKGRFTISADNSKNTAYLQMNSLKPEDTAVYYCALDIDYRDWGQGTLVTVSS", "Kd": 18.9}, {"binder": "variant 5-39 (Fc fusion) VHH: EVQLVESGGGLVQPGGSLRLSCAASGVTLDLYAMGWFRQAPGKEREFVAGIRWTDAYTEYADSVKGRFTISADNSKNTAYLQMNSLKPEDTAVYYCAVDIDYRDWGQGTLVTVSS", "Kd": 37.6}, {"binder": "variant 5-20 (Fc fusion, VHH-Fc) VHH: EVQLVESGGGLVQPGGSLRLSCAASGRTIVPYTMGWFRQAPGKERELVAAISPSAFTEYADSVKGRFTISADNSKNTAYLQMNSLKPEDTAVYYCAARRWGYDWGQGTLVTVSS", "Kd": 1.1}, {"binder": "variant 5-21 (Fc fusion) VHH: EVQLVESGGGLVQPGGSLRLSCAASGGTFTTYHMGWFRQAPGKEREFVAHISTGGATNYADSVKGRFTISADNSKNTAYLQMNSLKPEDTAVYYCATFPAIVTDSDYDLGNDWGQGTLVTVSS", "Kd": 10}, {"binder": "variant 5-22 (Fc fusion) VHH: EVQLVESGGGLVQPGGSLRLSCAASGFTFNVFAMGWFRQAPGKEREFVAAINWSDSRTDYADSVKGRFTISADNSKNTAYLQMNSLKPEDTAVYYCASGSDNRARELSRYEYVWGQGTLVTVSS", "Kd": 7.2}, {"binder": "variant 5-27 (Fc fusion) VHH: EVQLVESGGGLVQPGGSLRLSCAASGRANSINWMGWFRQAPGKEREFVATITPGGNTNYADSVKGRFTISADNSKNTAYLQMNSLKPEDTAVYYCAAAAGSTWYGTLYEYDWGQGTLVTVSS", "Kd": 110}, {"binder": "variant 5-28 (Fc fusion) VHH: EVQLVESGGGLVQPGGSLRLSCAASGGTFSVFAMGWFRQVPGKERELVAEITAGGSTYYADSVKGRFTISADNSKNTAYLQMNSLKPEDTAVYYCAVDGPFGWGQGTLVTVSS", "Kd": 1}, {"binder": "variant 5-29 (Fc fusion) VHH: EVQLVESGGGLVQPGGSLRLSCAASGFTFDDYPMGWFRQAPGKEREGVASVLRGGYTWYADSVKGRFTISADNSKNTAYLQMNSLKPEDTAVYYCAKDWATGLAWGQGTLVTVSS", "Kd": 1}, {"binder": "variant 5-32 (Fc fusion) VHH: EVQLVESGGGLVQPGGSLRLSCAASGFTPDNYAMGWFRQAPGKEREFVAALGWSGVTTYHYYADSVKGRFTISADNSKNTAYLQMNSLKPEDTAVYYCASDESDAANWGQGTLVTVSS", "Kd": 0.1}, {"binder": "variant 5-35 (Fc fusion) VHH: EVQLVESGGGLVQPGGSLRLSCAASGPTFSIYAMGWFRQAPGKERELVAGISWNGGSTNYADSVKGRFTISADNSKNTAYLQMNSLKPEDTAVYYCALRRRFGGQEWGQGTLVTVSS", "Kd": 16}, {"binder": "variant 5-37 (Fc fusion, VHH-Fc) VHH: EVQLVESGGGLVQPGGSLRLSCAASGSTFSINAMGWFRQAPGKEREFVGGISRSGATTNYADSVKGRFTISADNSKNTAYLQMNSLKPEDTAVYYCAADGVPEYSDYASGPVWGQGTLVTVSS", "Kd": 1.8}, {"binder": "variant 5-42 (Fc fusion) VHH: EVQLVESGGGLVQPGGSLRLSCAASGFTPDDYAMGWFRQAPGKEREFVASIGYSGRSNSYNYYADSVKGRFTISADNSKNTAYLQMNSLKPEDTAVYYCAIAHGSSTYNWGQGTLVTVSS", "Kd": 0.6}, {"binder": "variant 5-47 (Fc fusion) VHH: EVQLVESGGGLVQPGGSLRLSCAASGFTFGSYDMGWFRQAPGKEREFVTAINWSGARTAYADSVKGRFTISADNSKNTAYLQMNSLKPEDTAVYYCAARSVYSYEYNWGQGTLVTVSS", "Kd": 0.7}, {"binder": "variant 5-49 (Fc fusion) VHH: EVQLVESGGGLVQPGGSLRLSCAASGRTSTVNGMGWFRQAPGKEREFVASISQSGAATAYADSVKGRFTISADNSKNTAYLQMNSLKPEDTAVYYCAADRTYSYSSTGYYWGQGTLVTVSS", "Kd": 3.4}, {"binder": "variant 5-52 (Fc fusion) VHH: EVQLVESGGGLVQPGGSLRLSCAASGEKFSDHWMGWFRQAPGKEREFVATITFSGARTAYADSVKGRFTISADNSKNTAYLQMNSLKPEDTAVYYCAALIKPSSTDRIFEEWGQGTLVTVSS", "Kd": 0.9}, {"binder": "variant 5-53 (Fc fusion) VHH: EVQLVESGGGLVQPGGSLRLSCAASGLTVVPYAMGWFRQAPGKEREFVAAIRRSAVTNYADSVKGRFTIIADNSKNTAYLLMNSLKPEDTAVYYCAARRWGYHYWGQGTLVTVSS", "Kd": 684}, {"binder": "variant 5-55 (Fc fusion) VHH: EVQLVESGGGLVQPGGSLRLSCAASGIDVNRNAMGWFRQAPGKEREFVAAITWSGGWRYYADSVKGRFTISADNSKNTAYLQMNSLKPEDTAVYYCATTFGDAGIPDQYDFGWGQGTLVTVSS", "Kd": 0.6}, {"binder": "variant 5-56 (Fc fusion) VHH: EVQLVESGGGLVQPGGSLRLSCAASGRTFSSNMGWFRQAPGKEREFVARIFGGDRTLYADSVKGRFTISADNSKNTAYLQMNSLKPEDTAVYYCADINGDWGQGTLVTVSS", "Kd": 2.8}, {"binder": "variant 5-59 (Fc fusion) VHH: EVQLVESGGGLVQPGGSLRLSCAASGLTFSLYRMCWFRQAPGKEREEVSCISNIDGSTYYADSVKGRFTISADNSKNTAYLQMNSLKPEDTAVYYCAADLLGDSDYEPSSGFGWGQGTLVTVSS", "Kd": 6.4}, {"binder": "variant 5-60 (Fc fusion) VHH: EVQLVESGGGLVQPGGSLRLSCAASGRSFSSHRMGWFRQAPGKEREFVAAIMWSGSHRNYADSVKGRFTISADNSKNTAYLQMNSLKPEDTAVYYCAAIAYEEGVYRWDWGQGTLVTVSS", "Kd": 0.8}, {"binder": "variant 5-63 (Fc fusion) VHH: EVQLVESGGGLVQPGGSLRLSCAASGFSLDYYDMGWFRQAPGKEREFVAALGWSGGSTDYADSVKGRFTISADNSKNTAYLQMNSLKPEDTAVYYCAAGNGGRYGIVERWGQGTLVTVSS", "Kd": 0.4}, {"binder": "variant 5-64 (Fc fusion) VHH: EVQLVESGGGLVQPGGSLRLSCAASGTSISNRVMGWFRQAPGKERELVARIYTGGDTLYADSVKGRFTISADNSKNTAYLQMNSLKPEDTAVYYCAARKIYRSLSYYGDYDWGQGTLVTVSS", "Kd": 221}, {"binder": "variant 5-65 (Fc fusion) VHH: EVQLVESGGGLVQPGGSLRLSCAASGNIDRLYAMGWFRQAPGKEREGVAAIDSDGSTDYADSVKGRFTISADNSKNTAYLQMNSLKPEDTAVYYCAALIDYGLGFPIEWGQGTLVTVSS", "Kd": 421}, {"binder": "variant 5-67 (Fc fusion) VHH: EVQLVESGGGLVQPGGSLRLSCAASGFNVNDYAMGWFRQAPGKEREFVAGITSSVGVTNYADSVKGRFTISADNSKNTAYLQMNSLKPEDTAVYYCAADIFFVNWGRGTLVTVSS", "Kd": 1}, {"binder": "variant 5-68 (Fc fusion) VHH: EVQLVESGGGLVQPGGSLRLSCAASGFTFDHYTMGWFRQAPGKEREFVAAISGSENVTSYADSVKGRFTISADNSKNTAYLQMNSLKPEDTAVYYCAAEPYIPVRTMRHMTFLTWGQGTLVTVSS", "Kd": 4.8}, {"binder": "variant 6-1 (Fc fusion) VHH: EVQLVESGGGLVQPGGSLRLSCAASGRTFGNYNMGWFRQAPGKEREFVATINSLGGTSYADSVKGRFTISADNSKNTAYLQMNSLKPEDTAVYYCARVDYYMDVWGQGTLVTVSS", "Kd": 1.2}, {"binder": "variant 6-2 (Fc fusion) VHH: EVQLVESGGGLVQPGGSLRLSCAASGFTMSSSWMGWFRQAPGKEREFVTVISGVGTSYADSVKGRFTISADNSKNTAYLQMNSLKPEDTAVYYCARGPDSSGYGFDYWGQGTLVTVSS", "Kd": 1.2}, {"binder": "variant 6-4 (Fc fusion) VHH: EVQLVESGGGLVQPGGSLRLSCAASGFTRDYYTMGWFRQAPGKEREFVAAISRSGSLTSYADSVKGRFTISADNSKNTAYLQMNSLKPEDTAVYYCANLAYYDSSGYYDYWGQGTLVTVSS", "Kd": 0.5}]}]}
